Experimental data from patent US20250347705, “Epitope-Specific hCG Binding Aptamers and Applications Thereof” (Rhodes University, published 2025).

Experiments:
[1] = target: bovine serum albumin (BSA) (UniProt P02769 P02769:25-607); test: ELONA; BSA control beads, not different from No DNA
Experimental: Protein-modified magnetic beads were prepared by functionalising 1 mg of epoxy beads with either 10 μg of hCG or negative control proteins BSA or HSA (as in Example 2). Once functionalised, aliquots of the beads corresponding to 72 μg beads were added to individual wells of a 96-well plate which were pre-blocked with 3% w/v milk powder (in HMCKN-T buffer composed of 20 mM HEPES, 2 mM MgCl₂, 2 mM CaCl₂, 2 mM KCl, 150 mM NaCl, pH 7.4, supplemented with 0.002% v/v TWEEN 20.) Bead samples were prepared in triplicate.
A variation of the qPCR assay (FIG. 9) was employed using biotinylated aptamer sequences, creating a colourimetric ELONA (FIG. 10). During the colourimetric ELONA study, 5′ biotinylated full-length aptamer sequences were exposed to protein-modified beads—either hCG target or Bovine Serum Albumin (the bovine equivalent of HSA). After rinsing unbound aptamers from the beads, the colorimetric signal, proportional to the amount of biotinylated aptamer present, was generated by the addition of HRP-conjugated streptavidin and the subsequent HRP-catalysed oxidation of TMB.

[2] = target: human chorionic gonadotropin (hCG), alpha/beta heterodimer (Homo sapiens, UniProt P01215;P0DN86 P01215:25-116,P0DN86:21-165); test: EMSA; very slight band decrease; ELONA signal similar to No DNA; details: tags: Abcam ab126652, isolated from human urine, >=50% pure; label: 5' biotin
human chorionic gonadotropin (hCG), alpha/beta heterodimer, sequence (P01215 25-116, chain 1 of 2, other chains not shown): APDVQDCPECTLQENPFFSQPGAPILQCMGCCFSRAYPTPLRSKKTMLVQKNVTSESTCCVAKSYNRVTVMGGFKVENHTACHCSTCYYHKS

bovine serum albumin (BSA), sequence (P02769 25-607, one chain of several): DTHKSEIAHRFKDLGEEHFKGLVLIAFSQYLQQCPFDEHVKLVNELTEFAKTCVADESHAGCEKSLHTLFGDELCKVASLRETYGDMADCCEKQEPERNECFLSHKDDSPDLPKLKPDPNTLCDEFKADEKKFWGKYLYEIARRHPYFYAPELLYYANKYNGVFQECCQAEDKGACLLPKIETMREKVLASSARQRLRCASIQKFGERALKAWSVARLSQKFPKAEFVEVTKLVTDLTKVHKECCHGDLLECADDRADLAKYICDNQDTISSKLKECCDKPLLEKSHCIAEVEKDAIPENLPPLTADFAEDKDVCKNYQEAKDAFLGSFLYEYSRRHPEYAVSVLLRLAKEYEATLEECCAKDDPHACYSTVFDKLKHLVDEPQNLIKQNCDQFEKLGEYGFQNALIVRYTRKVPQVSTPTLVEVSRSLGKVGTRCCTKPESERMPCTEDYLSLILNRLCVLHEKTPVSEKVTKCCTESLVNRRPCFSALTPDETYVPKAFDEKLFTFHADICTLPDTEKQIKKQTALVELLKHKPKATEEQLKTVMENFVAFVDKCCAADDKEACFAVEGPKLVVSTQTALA

CAACTATTTCAGTATTCTAGAAAGGTCAAACCTTAGGAGC (ssDNA) [R6_5 truncated]
binding result ([1]; label: 5' biotin): no binding

ACCTGCTGACATTGGGTGGGTCCTGAACCATTTTTAATCA (ssDNA) [R4_64 truncated]
binding result ([1]; label: 5' biotin (3' biotin variant also used)): no binding

TGGACGAGGTATCTCGTATCATTGGCACCTAAAACTCCGT (ssDNA) [R4_1 truncated (amplification artefact control)]
binding result ([1]; label: 5' biotin): no binding | binding result [2]: no binding

CAAGGATCGGCTCAACTTAATATTGGAGGGATAGTGTTGG (ssDNA) [R5_4 truncated]
binding result ([1]; label: 5' biotin): no binding
